# Measurements published in patent US20230201319.
# B1: Purified recombinant human ADAMTS13 (rADAMTS13, Takeda, Vienna, Austria) from a Chinese hamster ovary cell line (protein)
# chain: AAGGILHLELLVAVGPDVFQAHREDTERYVLTNLNIGAELLRDPSLGAQFRVHLVKMVILTEPEGAPNITANLTSSLLSVCGWSQTINPEDDTDPGHADLVLYITRFDLELPDGNRQVRGVTQLGGACSPTWSCLITEDTGFDLGVTIAHEIGHSFGLEHDGAPGSGCGPSGHVMASDGAAPRAGLAWSPCSRRQLLSLLSAGRARCVWDPPRPQPGSAGHPPDAQPGLYYSANEQCRVAFGPKAVACTFAREHLDMCQALSCHTDPLDQSSCSRLLVPLLDGTECGVEKWCSKGRCRSLVELTPIAAVHGRWSSWGPRSPCSRSCGGGVVTRRRQCNNPRPAFGGRACVGADLQAEMCNTQACEKTQLEFMSQQCARTDGQPLRSSPGGASFYHWGAAVPHSQGDALCRHMCRAIGESFIMKRGDSFLDGTRCMPSGPREDGTLSLCVSGSCRTFGCDGRMDSQQVWDRCQVCGGDNSTCSPRKGSFTAGRAREYVTFLTVTPNLTSVYIANHRPLFTHLAVRIGGRYVVAGKMSISPNTTYPSLLEDGRVEYRVALTEDRLPRLEEIRIWGPLQEDADIQVYRRYGEEYGNLTRPDITFTYFQPKPRQAWVWAAVRGPCSVSCGAGLRWVNYSCLDQARKELVETVQCQGSQQPPAWPEACVLEPCPPYWAVGDFGPCSASCGGGLRERPVRCVEAQGSLLKTLPPARCRAGAQQPAVALETCNPQPCPARWEVSEPSSCTSAGGAGLALENETCVPGADGLEAPVTEGPGSVDEKLPAPEPCVGMSCPPGWGHLDATSAGEKAPSPWGSIRTGAQAAHVWTPAAGSCSVSCGRGLMELRFLCMDSALRVPVQEELCGLASKPGSRREVCQAVPCPARWQYKLAACSVSCGRGVVRRILYCARAHGEDDGEEILLDTQCQGLPRPEPQEACSLEPCPPRWKVMSLGPCSASCGLGTARRSVACVQLDQGQDVEVDEAACAALVRPEASVPCLIADCTYRWHVGTWMECSVSCGDGIQRRRDTCLGPQAQAPVPADFCQHLPKPVTVRGCWAGPCVGQGTPSLVPHEEAAAPGRTTATPAGASLEWSQARGLLFSPAPQPRRLLPGPQENSVQSSACGRQHLEPTGTIDMRGPGQADCAVAIGRPLGEVVTLRVLESSLNCSAGDMLLLWGRLTWRKMCRKLLDMTFSSKTNTLVVRQRCGRPGGGVLLRYGSQLAPETFYRECDMQLFGPWGEIVSPSLSPATSNAGGCRLFINVAPHARIAIHALATNMGAGTEGANASYILIRDTHSLRTTAFHGQQVLYWESESSQAEMEFSEGFLKAQASLRGQYWTLQSWVPEMQDPQSWKGKEGT
# Molecular target: von Willebrand factor (VWF) in plasma of patients with severe COVID-19, P04275
protein,measurement,value
B1,"Decrease (%) of VWF:CB 0 vs. 5 hrs, plasma B1",65%
same,"Decrease (%) of VWF:CB 0 vs. 5 hrs, plasma B2",60%
same,"Decrease (%) of VWF:CB 0 vs. 5 hrs, plasma B5",65%
same,"Decrease (%) of VWF:CB 0 vs. 5 hrs, plasma B7",52%
same,"Decrease (%) of VWF:CB 0 vs. 5 hrs, plasma B15",44%
same,"Decrease (%) of VWF:CB 0 vs. 5 hrs, plasma B18",63%
same,"Decrease (%) of VWF:CB 0 vs. 5 hrs, plasma S6",33%
same,"Decrease (%) of VWF:CB 0 vs. 5 hrs, plasma S10",60%
same,"Decrease (%) of VWF:CB 0 vs. 5 hrs, plasma S12",53%
same,"Decrease (%) of VWF:CB 0 vs. 5 hrs, plasma S21",44%
same,"Dimer relative to total multimer content (AUC %) at 0 hrs, plasma B1",3.6 AUC %
same,"Dimer relative to total multimer content (AUC %) at 0 hrs, plasma B2",5.4 AUC %
same,"Dimer relative to total multimer content (AUC %) at 0 hrs, plasma B5",3.7 AUC %
same,"Dimer relative to total multimer content (AUC %) at 0 hrs, plasma B7",5.3 AUC %
same,"Dimer relative to total multimer content (AUC %) at 0 hrs, plasma B15",5.1 AUC %
same,"Dimer relative to total multimer content (AUC %) at 0 hrs, plasma B18",3.6 AUC %
same,"Dimer relative to total multimer content (AUC %) at 0 hrs, plasma S6",5.4 AUC %
same,"Dimer relative to total multimer content (AUC %) at 0 hrs, plasma S21",4.9 AUC %
same,"Dimer relative to total multimer content (AUC %) at 5 hrs, plasma B1",9.1 AUC %
same,"Dimer relative to total multimer content (AUC %) at 5 hrs, plasma B2",11.3 AUC %
same,"Dimer relative to total multimer content (AUC %) at 5 hrs, plasma B5",11 AUC %
same,"Dimer relative to total multimer content (AUC %) at 5 hrs, plasma B7",10.1 AUC %
same,"Dimer relative to total multimer content (AUC %) at 5 hrs, plasma B15",12.3 AUC %
same,"Dimer relative to total multimer content (AUC %) at 5 hrs, plasma B18",7 AUC %
same,"Dimer relative to total multimer content (AUC %) at 5 hrs, plasma S6",7 AUC %
same,"Dimer relative to total multimer content (AUC %) at 5 hrs, plasma S21",8.5 AUC %
same,"Increase (%) of dimer 0 vs. 5 hrs, plasma B1",253%
same,"Increase (%) of dimer 0 vs. 5 hrs, plasma B2",209%
same,"Increase (%) of dimer 0 vs. 5 hrs, plasma B5",297%
same,"Increase (%) of dimer 0 vs. 5 hrs, plasma B7",191%
same,"Increase (%) of dimer 0 vs. 5 hrs, plasma B15",241%
same,"Increase (%) of dimer 0 vs. 5 hrs, plasma B18",194%
same,"Increase (%) of dimer 0 vs. 5 hrs, plasma S6",130%
same,"Increase (%) of dimer 0 vs. 5 hrs, plasma S21",173%
same,"UHMW VWF multimers by semi-automated electrophoresis, plasma B1, 10 IU/mL rADAMTS13",disappearance of all the abnormal UHMW VWF multimers
same,"UHMW multimer quantitation parameter after 5 h with 10 IU/mL rADAMTS13, plasma B1",to a level lower than that observed in control plasma (88%)
same,"UHMW multimer quantitation parameter before incubation, plasma B1 (home cast gels)",the elevated UHMW multimer quantitation parameter of 124%
same,"VWF:CB (IU/mL) at 0 hrs, plasma B1, 1 IU/mL rADAMTS13",3.09 IU/mL
same,"VWF:CB (IU/mL) at 0 hrs, plasma B2, 1 IU/mL rADAMTS13",1.39 IU/mL
same,"VWF:CB (IU/mL) at 0 hrs, plasma B5, 1 IU/mL rADAMTS13",2.46 IU/mL
same,"VWF:CB (IU/mL) at 0 hrs, plasma B7, 1 IU/mL rADAMTS13",3.03 IU/mL
same,"VWF:CB (IU/mL) at 0 hrs, plasma B15, 1 IU/mL rADAMTS13",2.44 IU/mL
same,"VWF:CB (IU/mL) at 0 hrs, plasma B18, 1 IU/mL rADAMTS13",2.25 IU/mL
same,"VWF:CB (IU/mL) at 0 hrs, plasma S6, 1 IU/mL rADAMTS13",2.19 IU/mL
same,"VWF:CB (IU/mL) at 0 hrs, plasma S10, 1 IU/mL rADAMTS13",6.48 IU/mL
same,"VWF:CB (IU/mL) at 0 hrs, plasma S12, 1 IU/mL rADAMTS13",3.01 IU/mL
same,"VWF:CB (IU/mL) at 0 hrs, plasma S21, 1 IU/mL rADAMTS13",3.7 IU/mL
same,"VWF:CB (IU/mL) at 5 hrs, plasma B1, 1 IU/mL rADAMTS13",2.02 IU/mL
same,"VWF:CB (IU/mL) at 5 hrs, plasma B2, 1 IU/mL rADAMTS13",0.84 IU/mL
same,"VWF:CB (IU/mL) at 5 hrs, plasma B5, 1 IU/mL rADAMTS13",1.61 IU/mL
same,"VWF:CB (IU/mL) at 5 hrs, plasma B7, 1 IU/mL rADAMTS13",1.58 IU/mL
same,"VWF:CB (IU/mL) at 5 hrs, plasma B15, 1 IU/mL rADAMTS13",1.08 IU/mL
same,"VWF:CB (IU/mL) at 5 hrs, plasma B18, 1 IU/mL rADAMTS13",1.42 IU/mL
same,"VWF:CB (IU/mL) at 5 hrs, plasma S6, 1 IU/mL rADAMTS13",0.73 IU/mL
same,"VWF:CB (IU/mL) at 5 hrs, plasma S10, 1 IU/mL rADAMTS13",3.91 IU/mL
same,"VWF:CB (IU/mL) at 5 hrs, plasma S12, 1 IU/mL rADAMTS13",1.6 IU/mL
same,"VWF:CB (IU/mL) at 5 hrs, plasma S21, 1 IU/mL rADAMTS13",1.63 IU/mL
same,mean VWF:CB of ten patient samples after 5 h incubation with 1 IU/mL rADAMTS13,decreased from 3.01 (SD: 1.37; SEM: 0.434) to 1.64 (SD: 0.89; SEM 0.28) IU/mL
same,mean VWF:CB of ten patient samples before incubation with 1 IU/mL rADAMTS13,decreased from 3.01 (SD: 1.37; SEM: 0.434) to 1.64 (SD: 0.89; SEM 0.28) IU/mL
same,"reduction in VWF activity at 5 h, plasma B1, 10 IU/mL rADAMTS13",more than a 60% reduction at 5 h
same,"reduction in VWF activity within 5 h, plasma B1, 1 IU/mL rADAMTS13","within 5 h, VFW activity reduced by about 30%"
same,"reduction of the UHMW multimer quantitation parameter after 5 h with 1 IU/mL rADAMTS13, plasma B1",reduced by 16% after 5 h of incubation with 1 IU/mL rADAMTS13
same,"reduction of the UHMW multimer quantitation parameter after 5 h with 10 IU/mL rADAMTS13, plasma B1",by 36% with 10 IU/mL rADAMTS13
